Measured values published in patent US20090155176A1.

Target: LFA-1 (lymphocyte function-associated antigen-1), purified heterodimer captured on ELISA plates (human) (UniProt P20701)
Assay: competition ELISA (LFA-1/ICAM-1-Ig)
Details: ligand

Sequence of LFA-1 (lymphocyte function-associated antigen-1), purified heterodimer captured on ELISA plates (human) (P20701 26-1170, chain 1 of 2): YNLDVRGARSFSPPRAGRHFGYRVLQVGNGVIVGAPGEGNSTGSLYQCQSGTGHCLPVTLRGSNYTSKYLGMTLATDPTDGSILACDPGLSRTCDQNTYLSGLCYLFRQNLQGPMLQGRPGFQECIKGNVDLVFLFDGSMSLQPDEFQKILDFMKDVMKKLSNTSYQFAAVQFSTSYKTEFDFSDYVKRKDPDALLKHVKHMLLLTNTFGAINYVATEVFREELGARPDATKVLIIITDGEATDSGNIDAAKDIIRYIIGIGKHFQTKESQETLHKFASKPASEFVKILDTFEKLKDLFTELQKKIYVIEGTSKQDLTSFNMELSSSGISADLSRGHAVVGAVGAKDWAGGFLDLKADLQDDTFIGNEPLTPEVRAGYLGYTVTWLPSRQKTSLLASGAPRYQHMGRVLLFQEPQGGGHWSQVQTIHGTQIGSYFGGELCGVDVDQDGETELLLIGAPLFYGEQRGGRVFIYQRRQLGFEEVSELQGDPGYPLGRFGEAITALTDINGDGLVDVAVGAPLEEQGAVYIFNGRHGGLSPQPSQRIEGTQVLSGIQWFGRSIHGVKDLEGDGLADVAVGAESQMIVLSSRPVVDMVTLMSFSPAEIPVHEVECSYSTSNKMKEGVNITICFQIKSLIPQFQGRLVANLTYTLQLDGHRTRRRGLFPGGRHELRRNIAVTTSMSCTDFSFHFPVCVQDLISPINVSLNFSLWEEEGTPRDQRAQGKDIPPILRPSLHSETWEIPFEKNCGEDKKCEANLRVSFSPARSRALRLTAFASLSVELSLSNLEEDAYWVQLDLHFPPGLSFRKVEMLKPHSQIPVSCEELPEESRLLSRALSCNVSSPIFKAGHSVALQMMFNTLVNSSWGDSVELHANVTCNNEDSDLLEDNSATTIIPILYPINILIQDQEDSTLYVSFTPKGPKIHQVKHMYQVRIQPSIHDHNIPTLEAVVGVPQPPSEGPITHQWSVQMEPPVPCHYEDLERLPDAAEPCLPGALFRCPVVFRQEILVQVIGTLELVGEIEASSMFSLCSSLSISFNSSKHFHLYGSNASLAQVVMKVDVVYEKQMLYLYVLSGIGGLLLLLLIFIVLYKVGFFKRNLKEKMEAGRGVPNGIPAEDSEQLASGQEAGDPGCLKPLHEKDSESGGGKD
Sequence of LFA-1 (lymphocyte function-associated antigen-1), purified heterodimer captured on ELISA plates (human) (P05107 23-769, chain 2 of 2, further chain): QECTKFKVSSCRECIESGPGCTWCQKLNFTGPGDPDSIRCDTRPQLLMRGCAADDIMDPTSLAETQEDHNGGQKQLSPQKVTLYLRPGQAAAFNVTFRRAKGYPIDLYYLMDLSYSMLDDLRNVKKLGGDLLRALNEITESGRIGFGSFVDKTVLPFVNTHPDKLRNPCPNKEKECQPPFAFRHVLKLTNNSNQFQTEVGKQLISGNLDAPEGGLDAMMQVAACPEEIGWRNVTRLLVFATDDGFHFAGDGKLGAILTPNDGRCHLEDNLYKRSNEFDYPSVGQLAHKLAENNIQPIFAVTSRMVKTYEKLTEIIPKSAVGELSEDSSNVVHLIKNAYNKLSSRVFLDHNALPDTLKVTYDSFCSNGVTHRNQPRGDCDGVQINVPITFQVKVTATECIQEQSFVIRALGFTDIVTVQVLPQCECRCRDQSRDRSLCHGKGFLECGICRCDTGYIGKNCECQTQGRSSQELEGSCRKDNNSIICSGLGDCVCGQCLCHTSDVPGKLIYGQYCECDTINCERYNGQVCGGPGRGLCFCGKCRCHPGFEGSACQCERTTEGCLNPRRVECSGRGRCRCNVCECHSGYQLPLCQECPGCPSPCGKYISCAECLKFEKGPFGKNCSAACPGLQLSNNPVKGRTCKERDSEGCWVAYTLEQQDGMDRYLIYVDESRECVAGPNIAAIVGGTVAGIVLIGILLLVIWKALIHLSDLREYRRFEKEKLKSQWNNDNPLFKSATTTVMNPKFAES
Sequence of sICAM-1 (soluble ICAM-1) (P05362 28-480): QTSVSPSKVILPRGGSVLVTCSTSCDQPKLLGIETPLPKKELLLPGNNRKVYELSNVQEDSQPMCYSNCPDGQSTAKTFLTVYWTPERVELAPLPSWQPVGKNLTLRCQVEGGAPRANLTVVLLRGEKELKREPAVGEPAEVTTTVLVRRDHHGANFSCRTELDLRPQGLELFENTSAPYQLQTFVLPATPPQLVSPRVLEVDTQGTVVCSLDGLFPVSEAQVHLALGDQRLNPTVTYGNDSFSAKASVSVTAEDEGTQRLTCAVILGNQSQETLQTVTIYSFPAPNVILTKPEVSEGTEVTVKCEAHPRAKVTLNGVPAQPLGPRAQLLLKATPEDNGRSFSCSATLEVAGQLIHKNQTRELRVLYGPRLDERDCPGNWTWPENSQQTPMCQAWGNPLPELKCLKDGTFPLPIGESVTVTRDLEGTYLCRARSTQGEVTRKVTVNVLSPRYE

IC50: 290 nM
Substance: sICAM-1 (soluble ICAM-1) (from UniProt P05362 28-480)
